Laboratory results from patent publication US20060292565A1.

Target: stimulatory G-protein, Gs

- [35S]GTPγS binding in the presence of 10 µM isoproterenol: 770000 dpm/mg
Substance: Gly-389 beta-1 adrenergic receptor
